# Measurements as given in the nanobody polyreactivity screen of Harvey et al. (2022).
# Assay: yeast display, Sf9 membrane polyspecificity reagent, FACS + sequencing; frameworks hold sequencing errors
# In short: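 Sorting gates, low and high (top ~1%), were placed on anti-HA fluorescence to track expression and on streptavidin fluorescence to track reagent binding. A clone's polyreactivity label is taken from the gate it came out of. The reagent was 10% biotinylated, detergent-solubilized Sf9 membrane, applied for 1 hour at 4 °C to galactose-induced yeast display cells.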
row,Sequence,polyreactivity (PSR sort gate)
1,QVQLVESGGGLVQAGGSLRLSCAASGSIFVAYAMGWDRQAPGKERELVAAISSSGGTTYYAYSVKGRFTISRDNAKNTVYLQMNSLKPEDTAVYYCAARDYKYYYWGQGTQVTVSS,high polyreactivity
2,QVQLVESGGGLVQAGGSLRLSCAASGSIFVAYAMGWYRQAPGKERELVAAITAVGSTYYADSVKGRFTISRDNAKNTVYLQMNSLKAEDTAVYYCAKRQLRPTYRYGYWGQGNQVTVSS,low polyreactivity
3,QVQLVESGGGLVQAGGSLRLSCAASGSIFVDNAMGWYRQAPGKEREMVAAISRRGGSTYYADSVKGRFTISRDNAKNTVYLQMNSLKPEDTAVYYCNKKNIQFYQGASDYWGQGTQVTVSS,high polyreactivity
4,QVQLVESGGGLVQAGGSLRLSCAASGSIFVDNAMGWYRQAPGKETQLVAAIRSRDTSTYYADSVKGRFSISLDNAKNTVYLQMNSLKPEDTAVYYCAARTSKRVSQYNYWGQGTQVTVSS,high polyreactivity
5,QVQLVESGGGLVQAGGSLRLSCAASGSIFVFYAMGWYRQAPGKERELVASITSSGGSTYYADSVKGRFTISRDNAKNTVYLQMNSLKPEDTAVYYCAARKYRNPYYYRYYYWGQGTQVTVSS,high polyreactivity
6,QVQLVESGGGLVQAGGSLRLSCAASGSIFVGNAMGLYRQAPGKERELVAAISSSGGRTFYADSVKGRFTISRDIAKNSVYLQMNSLKPEDTAVYYCAAYLWSYVFNLYEYWGQGTQVTVSS,high polyreactivity
7,QVQLVESGGGLVQAGGSLRLSCAASGSIFVGNAMGWYRQAPGKERELVAAISSSGGSTYYADSVKGRFTISRDYAKNSVYLQMNSLKPEYTAVYDCAADTYSTSGYYYWGQGTQVTVSS,low polyreactivity
8,QVQLVESGGGLVQAGGSLRLSCAASGSIFVGYAMGLYRQAPGKERELVAAISASGGRTYYADSVKGRFTISRDNAKNTVYLQMNSLKPEDTAVYYCATDDYWGRGTQVTVSS,high polyreactivity
9,QVQLVESGGGLVQAGGSLRLSCAASGSIFVGYAMGWYRQAPGKERELVAAISKSGGSTYYADSVKGRYTISRDNAKNTVYLQMNSLKPEDTAVYYCAAYPVRLVYSQHRYQYDYWGQGTQVTVSS,high polyreactivity
10,QVQLVESGGGLVQAGGSLRLSCAASGSIFVGYAMGWYRQAPGKERELVAAISVRGASTYYADSVKGRFTISRDNAKNTVYLQMNSLKPEDTAVYYCAARGNTPRTRRYGYWGQGTQVTVSS,high polyreactivity
11,QVQLVESGGGLVQAGGSLRLSCAASGSIFVGYAMGWYRQAPGKERELVASINYSGGTTDYADSVKGRFTISRDNAKNTVYLQMNSLKPEDTAVYYCAKTAVDWSFTKGVDYDYWGQGTQVTVSS,low polyreactivity
12,QVQLVESGGGLVQAGGSLRLSCAASGSIFVHYAMGWYIQEPGKERELVARISWRGNTYYADSVKGRFTISRDNAKNTVYLQMNSLKPEDTAVYYCAKDVRRSLVNWDVVYPHGYWGQGTQVTVSS,low polyreactivity
13,QVQLVESGGGLVQAGGSLRLSCAASGSIFVHYAMGWYRQAPGKERELVAAITSSGGRTYYADSVKGRFTISRDNAKNTVYLQMNSLKPEDTAVYYCNAAKYLFRHGFLSAGDMYYWGQGTQVTVSS,high polyreactivity
14,QVQLVESGGGLVQAGGSLRLSCAASGSIFVHYAMGWYRQAPGKERELVARISWRGNTYYADSVKGRFTISRDNAKNTVYLQMNSLKPEDTAVYYCAAEYFWYYYYLMDYWGQGTQVTVSS,low polyreactivity
15,QVQLVESGGGLVQAGGSLRLSCAASGSIFVINPMGWYRPAPGKERELVATIRARAGSTYYADSVKGRFTISRDNAKNSVYLQMNSLKPEDTAVYYCAARLKSYRVDYWGQGTQVTVSS,high polyreactivity
16,QVQLVESGGGLVQAGGSLRLSCAASGSIFVIYAMGWYRQAPGKERELVAAISWNGGSTFYADSVKGRFTISRDNAKNTVYLQMNSLKPDDTAVYDCNTVASYYRWKSYYYWGQGTQVTVSS,high polyreactivity
17,QVQLVESGGGLVQAGGSLRLSCAASGSIFVKNAMGWYRPAPGKEREFVAAITTSGGSTNYADSVKGRFTISRDNAKNTVYLQMTSLKPEDTAVYYCNTDIFPAAYDYWVQGTQVTVSS,low polyreactivity
18,QVQLVESGGGLVQAGGSLRLSCAASGSIFVKNAMGWYRQAPGKERELVAVITIRTATTYYADSVKGRFTISRDNAKNTVYLQMNSLKPEVTAVYYCAAAKRQRGYLQREGNYWGQGTQVTVSS,low polyreactivity
19,QVQLVESGGGLVQAGGSLRLSCAASGSIFVLNAMGWSRQAPGKETELVAAISYSGTGTYYADSVKGRFTISRDNAKNTVYLQMNSLKPEDTAVYDCAADYYYRYRIYDYWGQGTQVTLSS,low polyreactivity
20,QVQLVESGGGLVQAGGSLRLSCAASGSIFVLYAMGWYRQAPGKERELVAAIDFGGGSTYYADSVKGRFTISRDNAKNTVYLQMNSLKPEYTAVYYCAAELYYTYRWYDYWGQGTQVTVSS,high polyreactivity
21,QVQLVESGGGLVQAGGSLRLSCAASGSIFVLYAMGWYRQAPGKERELVAAITSGASTNYADSVKGRFTISRDNAKNTVYLQMNSLKPEDTAVYYCNTGSRLDRVDSWGQGTQVTVSS,low polyreactivity
22,QVQLVESGGGLVQAGGSLRLSCAASGSIFVNYAMGWYRQAPGKERELVAAISTGGGRTFYADSVKGRFTISRDNAKNTVYLQMNSLKPEDTAVYYCNKLGRPEYDYWGQGTQVTVSS,high polyreactivity

row,Sequence,polyreactivity (PSR sort gate)
1,QVQLVESGGGLVQAGGSLRLSCAASGSIFVPNDMGWYRQAPGKEREFVAAITESDGSTYNADSVKGRFTISRDNAKNTVYLQMNSLKPEDTAVYYCATDSTGVTIVHFDYWGQGTQVTVSS,low polyreactivity
2,QVQLVESGGGLVQAGGSLRLSCAASGSIFVPYAMGWTRQAPGKERELVAAIRRSGGRTYYADSVKGRFTISRDNAKNNVYLQMKSLKPEYTAVFYCAARQRYFWYTSNYNYWAQGTQVTVSS,high polyreactivity
3,QVQLVESGGGLVQAGGSLRLSCAASGSIFVPYAMGWYRQAPGKEREFVAAMYSGGGNTYYADSVKGRFTISRDNAKNTVYLQMNSLKREDTAVYYCAAAYVYSSWSRYDYWGQGTQVTVSS,high polyreactivity
4,QVQLVESGGGLVQAGGSLRLSCAASGSIFVPYAMGWYRQAPGKERELDAVITSGGSTYYADSVKGRFSISRDNAKNTVYLQMNSLKPEDTAVYYCNADLYYVWSTLSQFDYWGQGTQVTVSS,low polyreactivity
5,QVQLVESGGGLVQAGGSLRLSCAASGSIFVPYAMGWYRQAPGKERELVAAISSGGGRTYYADSVKGRFTISRDNAKNTVYLQMNRLKPEDTAVYYCAARYYIGYGHRTYGYDYWGQGTQVTVSS,high polyreactivity
6,QVQLVESGGGLVQAGGSLRLSCAASGSIFVPYGMGWYRKAPGTDRELVAAITFRTTSTYYADSVKGRFTISRDNAKNTVYLQMNSLKPEDTAVYYCNKGDYRTYPYDYWGQGTQVTVSS,low polyreactivity
7,QVQLVESGGGLVQAGGSLRLSCAASGSIFVQNRMGWYRQAPGKERELVAAITFSGVDTYYADSVKGRFTISRDNAKNTVYLQMNSLKPEDTAVYYCAARVQHYLSTDDYWGQGTQVTVSS,low polyreactivity
8,QVQLVESGGGLVQAGGSLRLSCAASGSIFVQYDMGWYRQAPGKERELVAAISWSGGSTYYADSVKGRFTISRDNAKNTVYLQMNTLKPEDTAVYYCAARARLWYFSYGYWGQGTQVTVSS,low polyreactivity
9,QVQLVESGGGLVQAGGSLRLSCAASGSIFVRNAKGCYRQAPWKERELVAAITATGGRTYYADSVKGRFTISRDNAKNTVYLQMNSLKPEDTAVYYCAAYYPRSGYDYWGQGTQVNVSS,high polyreactivity
10,QVQLVESGGGLVQAGGSLRLSCAASGSIFVRNAMGWYRQSPGKERELVAAITSGDSTNYADSVKGRFTISRDNAKNTVYLQMYCLKPEDTAVYYCNAQIYSVYRDGRDIYKYDYWGQGTQVTVSS,low polyreactivity
11,QVQLVESGGGLVQAGGSLRLSCAASGSIFVRNGMGWYRQAPGKDRELVASITSGTITYYADSVKGRFTISRDNAKNTVYLQMNSLKPEDTAVYDCNAGWRSSRFKRPYFRERNYWGQGTQLTVSS,high polyreactivity
12,QVQLVESGGGLVQAGGSLRLSCAASGSIFVSYAMGWYRQAPGKERELVAAITSAGTTYYADSVKGRFTISRDNAKNTVYLQMNSLKPEDTAVYYCNADTYGYYLWTGAVSAGDDYWGQGTQVTVSS,low polyreactivity
13,QVQLVESGGGLVQAGGSLRLSCAASGSIFVSYAMGWYRQAPGKERELVAAITYSGGRTYYADSVKGRFTISRDNAKNTVYLQMNCLKPEDTAVYYCAKRVSYPVRFPYFSYDYWGQGTQVTVSS,low polyreactivity
14,QVQLVESGGGLVQAGGSLRLSCAASGSIFVTNAMGWYRQAPGKERELVAAISVSGGSTYYADSEKGRITISRDNAKNTVYLQMNRLKAEDTAGYYCNARQVFTTAGREMDYWGQGTQVTVSS,low polyreactivity
15,QVQLVESGGGLVQAGGSLRLSCAASGSIFVTNAMGWYRQAPGKERELVAAISWSGDNTYYADSVKGRFTISRDNAKNTFYLQMNSLIPEDTAVYYCSTDVWYSYDYYYGDWGYEYWGQGTQVTVSS,high polyreactivity
16,QVQLVESGGGLVQAGGSLRLSCAASGSIFVTNVMGWYRQAPGKERELVAVINSGGRTYYADSVKGRFTISRDNAKNTVYLQMNSLKPEDTAVYYCAKDSWSSFQSLYPEFDYWGQGTQVTVSS,low polyreactivity
17,QVQLVESGGGLVQAGGSLRLSCAASGSIFVWNAMGWYRQAPGKERELVAAITNICGRTYYADSVKGRFTISRDNAKNTVYLQMNSLKPEDTAVYYCNTDRVSRLGWSTTSDSWGQGTQVTVSS,high polyreactivity
18,QVQLVESGGGLVQAGGSLRLSCAASGSIFVWYAMGWYRQAPGRKELVAAISWSGGTTYYADSVKGRFTISRDNAKNTVYLQMNSLKPEDTAVYYCAARGAVQASFYYWGQGTQVTVSS,high polyreactivity
19,QVQLVESGGGLVQAGGSLRLSCAASGSIFVYNAMGWYRQAPGKERELVASITWSGGRTYYADSVKGRFTNSRDNAQNTVYLQMNSLKPEDTAVYYCAADSPRGYDYWGQGTQVTVSS,high polyreactivity
20,QVQLVESGGGLVQAGGSLRLSCAASGSIFVYVMGWYRQAPGKERELVAAISSGGSTDYADSVKGRFTISRDNAQNTVYLQMNSLKPEDTAVYYCAADTDTGYTYYYWGQGTQVTVSS,low polyreactivity
21,QVQLVESGGGLVQAGGSLRLSCAASGSIFVYYAMGWYRQAPGKERELVAAINFRGGNTYYADSVKGRFTISRDNAKNTVYLQMNSLKPEDTAVYYCAADYRWKWIGGARYDYWGQGTQVTVSS,low polyreactivity
